{"source": "paper PMC3260182", "about": "“Stabilisation of the Fc Fragment of Human IgG1 by Engineered Intradomain Disulfide Bonds” (PLoS ONE, 2012)", "proteins": {"B1": {"name": "Fc fragment of human IgG1 with the CysP2 and CysP4 disulfide bonds combined (domain or fragment)", "chain": "EFTCPPCPAPELLGGPSVFLFPPKPKDTLMISRTPEVTCVVVDVSHEDPEVKFNWYVDGVEVHNAKTKPREEQYNSTYRVVSVLTVLHQDWLNGKEYKCKVSNKALPAPIEKTISKAKGQCREPQVYTLPPSRDELTKNQVSLTCLVKGFYPCDIAVEWESNGQPENNYKTTPCVLDSDGSFFLYSKLTVDKSRWQQGNVFSCSVMHECLHNHYTQKSLSLSPGK", "modifications": "N-linked glycosylation at residue Asn297; engineered intradomain disulfide bonds between Cys343 and Cys431 and between Cys375 and Cys396", "notes": "2 extra amino acid residues at the N-terminal site due to the EcoRI site used for cloning; the substitutions are still to be applied; Fc fragment of the human IgG1 heavy chain constant region in which the CysP2 and CysP4 mutations are combined; the first letter T is position 225. numbers count on: Kabat EU numbering; Primers are in File S1; also called CysP24; FcCysP24; source: Pichia pastoris …"}}, "molecular_target": "the molecule itself", "test": "SEC; size-exclusion HPLC, TSK G3000 SWXL column, PBS with 200 mM NaCl, 1 ml/min, 50 ug protein at about 1 mg/ml; native conditions; molecular weight standards", "data": [{"protein": "B1", "values": [{"measurement": "stoichiometry N", "value": 2}]}]}
